Results taken from patent publication US20230183354A1 (IMMIOS HOLDING B V, published 2023).

Legend:
[1] = biological target: human CD103 (integrin Alpha-E) / human integrin Beta-7 heterodimer on cells (human) (UniProt P38570); assay: flow cytometry, tumor digest OC433, non-labeled control Fab with secondary anti-Fab reagent (APC); secondary antibody alone Q3 2,44
[2] = biological target: human CD103 (integrin Alpha-E) / human integrin Beta-7 heterodimer on cells (human) (UniProt P38570); assay: flow cytometry, tumor digest OC433, non-labeled control Fab with secondary anti-Fab reagent (APC); secondary antibody alone Q2 4,65
[3] = biological target: human CD103 (integrin Alpha-E) / human integrin Beta-7 heterodimer on cells (human) (UniProt P38570); assay: flow cytometry, tumor digest OC433, AF647-conjugated control Fab, direct read-out
[4] = biological target: human CD103 (integrin Alpha-E) / human integrin Beta-7 heterodimer on cells (human) (UniProt P38570); assay: flow cytometry, tumor digest OC433, CD3 positive cells; Control panel Q2 0,53
[5] = biological target: human CD103 (integrin Alpha-E) / human integrin Beta-7 heterodimer on cells (human) (UniProt P38570); assay: flow cytometry competition on CD103+CD8+ T cells; pre-incubation with unlabeled 05A; table n=2
[6] = biological target: human CD103 (integrin Alpha-E) / human integrin Beta-7 heterodimer on cells (human) (UniProt P38570); assay: flow cytometry competition on CD103+CD8+ T cells; pre-incubation with unlabeled IgG (f2); table n=2
[7] = biological target: human CD103 (integrin Alpha-E) / human integrin Beta-7 heterodimer on cells (human) (UniProt P38570); assay: flow cytometry competition on CD103+CD8+ T cells; pre-incubation with unlabeled 03A; table n=1
[8] = biological target: human CD103 (integrin Alpha-E) / human integrin Beta-7 heterodimer on cells (human) (UniProt P38570); assay: flow cytometry competition on CD103+CD8+ T cells; pre-incubation with unlabeled BERACT; table n=1
[9] = biological target: human CD103 (integrin Alpha-E) / human integrin Beta-7 heterodimer on cells (human) (UniProt P38570); assay: flow cytometry competition on CD103+CD8+ T cells; pre-incubation with unlabeled 07A; table n=2
[10] = biological target: human CD103 (integrin Alpha-E) / human integrin Beta-7 heterodimer on cells (human) (UniProt P38570); assay: flow cytometry competition on CD103+CD8+ T cells; pre-incubation with unlabeled 01A; table n=1
[11] = biological target: human CD103 (integrin Alpha-E) / human integrin Beta-7 heterodimer on cells (human) (UniProt P38570); assay: flow cytometry competition on CD103+CD8+ T cells; pre-incubation with unlabeled 06A; table n=1
[12] = biological target: human CD103 (integrin Alpha-E) / human integrin Beta-7 heterodimer on cells (human) (UniProt P38570); assay: flow cytometry competition on CD103+CD8+ T cells; pre-incubation with unlabeled 03A; table n=2
[13] = biological target: human CD103 (integrin Alpha-E) / human integrin Beta-7 heterodimer on cells (human) (UniProt P38570); assay: flow cytometry competition on CD103+CD8+ T cells; pre-incubation with unlabeled 06A; table n=2
[14] = biological target: human CD103 (integrin Alpha-E) / human integrin Beta-7 heterodimer on cells (human) (UniProt P38570); assay: flow cytometry competition on CD103+CD8+ T cells; pre-incubation with unlabeled 02A; table n=1
[15] = biological target: human CD103 (integrin Alpha-E) / human integrin Beta-7 heterodimer on cells (human) (UniProt P38570); assay: flow cytometry, tumor digest OC433, CD3 positive cells; Control panel Q3 2,12
[16] = biological target: human CD103 (integrin Alpha-E) / human integrin Beta-7 heterodimer on cells (human) (UniProt P38570); assay: flow cytometry competition on CD103+CD8+ T cells; pre-incubation with unlabeled MCA708 (f4); table n=1
[17] = biological target: human CD103 (integrin Alpha-E) / human integrin Beta-7 heterodimer on cells (human) (UniProt P38570); assay: flow cytometry competition on CD103+CD8+ T cells; pre-incubation with unlabeled BERACT; table n=2
[18] = biological target: human CD103 (integrin Alpha-E) / human integrin Beta-7 heterodimer on cells (human) (UniProt P38570); assay: flow cytometry competition on CD103+CD8+ T cells; pre-incubation with unlabeled 02A; table n=2
[19] = biological target: human CD103 (integrin Alpha-E) / human integrin Beta-7 heterodimer on cells (human) (UniProt P38570); assay: flow cytometry competition on CD103+CD8+ T cells; pre-incubation with unlabeled 01A; table n=2
[20] = biological target: human CD103 (integrin Alpha-E) / human integrin Beta-7 heterodimer on cells (human) (UniProt P38570); assay: flow cytometry competition on CD103+CD8+ T cells; pre-incubation with unlabeled 05A; table n=1
[21] = biological target: human CD103 (integrin Alpha-E) / human integrin Beta-7 heterodimer on cells (human) (UniProt P38570); assay: flow cytometry competition on CD103+CD8+ T cells; pre-incubation with unlabeled 07A; table n=1
[22] = biological target: human CD103 (integrin Alpha-E) / human integrin Beta-7 heterodimer on cells (human) (UniProt P38570); assay: flow cytometry competition on CD103+CD8+ T cells; pre-incubation with unlabeled MCA708 (f4); table n=2
[23] = biological target: human CD103 (integrin Alpha-E) / human integrin Beta-7 heterodimer on cells (human) (UniProt P38570); assay: flow cytometry competition on CD103+CD8+ T cells; pre-incubation with unlabeled IgG (f2); table n=1
murine CD103 = biological target: T1, murine CD103 (mouse, UniProt Q60677 20-1167); assay: flow cytometry on mouse spleen and thymus cells
T1 construct: whole, on cells; also called murine CD103+ T cells; mouse CD103
T1 sequence (looked up): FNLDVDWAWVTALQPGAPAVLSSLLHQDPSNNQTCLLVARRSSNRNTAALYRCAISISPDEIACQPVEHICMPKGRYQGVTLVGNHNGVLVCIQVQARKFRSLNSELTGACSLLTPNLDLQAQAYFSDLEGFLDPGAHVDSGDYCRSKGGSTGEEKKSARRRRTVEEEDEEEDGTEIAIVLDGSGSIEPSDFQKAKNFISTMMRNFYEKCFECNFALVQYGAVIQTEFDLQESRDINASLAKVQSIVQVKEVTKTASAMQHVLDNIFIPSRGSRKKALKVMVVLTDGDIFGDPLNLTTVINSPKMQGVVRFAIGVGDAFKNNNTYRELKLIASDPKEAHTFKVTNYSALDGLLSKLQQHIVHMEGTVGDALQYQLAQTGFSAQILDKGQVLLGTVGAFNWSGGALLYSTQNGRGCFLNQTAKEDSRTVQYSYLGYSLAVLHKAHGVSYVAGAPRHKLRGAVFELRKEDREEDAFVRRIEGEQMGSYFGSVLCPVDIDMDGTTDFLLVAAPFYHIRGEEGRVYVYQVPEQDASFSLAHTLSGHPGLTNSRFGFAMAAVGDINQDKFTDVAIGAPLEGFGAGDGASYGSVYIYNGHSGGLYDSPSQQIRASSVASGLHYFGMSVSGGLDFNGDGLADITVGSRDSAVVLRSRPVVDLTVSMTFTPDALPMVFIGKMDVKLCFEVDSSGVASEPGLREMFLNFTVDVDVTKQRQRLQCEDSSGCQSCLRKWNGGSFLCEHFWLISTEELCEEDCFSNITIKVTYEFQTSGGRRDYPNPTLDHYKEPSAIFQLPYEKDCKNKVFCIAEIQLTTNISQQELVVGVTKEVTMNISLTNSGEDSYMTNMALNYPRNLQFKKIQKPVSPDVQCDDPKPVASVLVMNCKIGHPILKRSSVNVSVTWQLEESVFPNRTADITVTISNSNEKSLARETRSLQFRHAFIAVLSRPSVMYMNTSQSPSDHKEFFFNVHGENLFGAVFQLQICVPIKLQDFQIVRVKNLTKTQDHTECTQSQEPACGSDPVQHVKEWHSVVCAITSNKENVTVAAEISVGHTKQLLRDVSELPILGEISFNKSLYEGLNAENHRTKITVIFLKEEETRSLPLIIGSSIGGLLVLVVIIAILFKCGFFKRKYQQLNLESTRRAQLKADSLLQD
Description: Additional aliquots were stained with relevant isotype controls or as fluorescence minus one controls (“FMO” controls are cells stained with all the fluorophores minus one fluorophore; the relevant isotype controls contain either a directly labeled unspecific isotype antibody or an unspecific isotype antibody combined with secondary detection reagent). Percentage binding of fluorescently labeled mAbs was determined using flow cytometry. Maximum binding was set at 100%. […] Data analysis was performed with FlowJo v10 (Tree Star) and surface receptor levels were expressed as mean fluorescent intensity (MFI).

[24] = biological target: T2, human integrin Alpha-4 / human integrin Beta-7 heterodimer on CHO-K1 cells (human, UniProt P13612 34-1032; P26010 20-798); assay: cell ELISA on CHO.K1-humanAlpha4/beta7 cells, abs 450-610
T2 construct: Used as the control for reactivity with hBeta7; also called hAlpha4/hBeta7; CHO.K1-hAlpha4/hBeta7

[25] = biological target: T3, human CD103 (integrin Alpha-E) / human integrin Beta-7 heterodimer on cells (human, UniProt P38570 19-1179; P26010 20-798); assay: cell ELISA on CHO.K1-humanCD103/beta7 cells, abs 450-610
T3 construct: The same id is used for native CD103 on human CD103+CD8+ T cells (tumor digests, TGF-beta induced T cells); the assay field tells which cells; also called hCD103/hBeta7; CHO.K1-hCD103/hBeta7

hFab isotype
% of cells in Q3 (CD8- CD103+) [1]: 3.71%
% of cells in Q2 (CD8+ CD103+) [2]: 4.64%

Alexa647.mFab control
% of cells in Q2 (CD8+ CD103+) [3]: 2.58%
% of cells in Q3 (CD8- CD103+) [3]: 1.29%

CD103 (Ber-ACT8) antibody (BD)
% of CD3 positive cells in Q2 (CD8+ CD103+) [4]: 13.4%
% binding of the fluorescently labeled mAb (IgG pre-incubation = 100) [5]: 60.6%
% binding of the fluorescently labeled mAb (IgG pre-incubation = 100) [6]: 100%
% binding of the fluorescently labeled mAb (IgG pre-incubation = 100) [7]: 97%
% binding of the fluorescently labeled mAb (IgG pre-incubation = 100) [8]: 1.9%
% binding of the fluorescently labeled mAb (IgG pre-incubation = 100) [9]: 29.2%
% binding of the fluorescently labeled mAb (IgG pre-incubation = 100) [10]: 0.9%
% binding of the fluorescently labeled mAb (IgG pre-incubation = 100) [11]: 96.6%
% binding of the fluorescently labeled mAb (IgG pre-incubation = 100) [12]: 101%
% binding of the fluorescently labeled mAb (IgG pre-incubation = 100) [13]: 103%
% binding of the fluorescently labeled mAb (IgG pre-incubation = 100) [14]: 1.4%
% of CD3 positive cells in Q3 (CD8- CD103+) [15]: 7.75%
% binding of the fluorescently labeled mAb (IgG pre-incubation = 100) [16]: 115%
% binding of the fluorescently labeled mAb (IgG pre-incubation = 100) [17]: 3.5%
% binding of the fluorescently labeled mAb (IgG pre-incubation = 100) [18]: 2.9%
% binding of the fluorescently labeled mAb (IgG pre-incubation = 100) [19]: 2.3%
% binding of the fluorescently labeled mAb (IgG pre-incubation = 100) [20]: 50.9%
% binding of the fluorescently labeled mAb (IgG pre-incubation = 100) [21]: 27.2%
% binding of the fluorescently labeled mAb (IgG pre-incubation = 100) [22]: 109%
% binding of the fluorescently labeled mAb (IgG pre-incubation = 100) [23]: 100%

B1: hCD103.02A (antibody, V domains shown)
VH: EVQLQESGPSLVKPSQTLSLTCSVTGDSITSGYWNWIRKFPGNKLEYMGYITYSGSTYYNPSLKSRISITRDTSKNQYYLQFNSVTTEDTATYYCARGYYGSDAMDYWGQGTSVTVSS
VL: DIVMTQSHKFMSTSVGDRVSITCKASQDVSTAVAWYQQKPGQSPKLLIYSASYRYTGVPDRFTGSGSGTDFTFTISSVQAEDLAVYYCQQHYSPPWTFGGGTKLEIK
notes: also called clone 02A
binding result (murine CD103): no binding
binding result [24]: no binding
EC50 (read off the curve) [25]: ~10 ng/mL
